In test [1] the target is T1, human IL-4RA-hFc (human, UniProt P24394 26-232).
T1 construct: mature; no linker is stated
T1 sequence (looked up): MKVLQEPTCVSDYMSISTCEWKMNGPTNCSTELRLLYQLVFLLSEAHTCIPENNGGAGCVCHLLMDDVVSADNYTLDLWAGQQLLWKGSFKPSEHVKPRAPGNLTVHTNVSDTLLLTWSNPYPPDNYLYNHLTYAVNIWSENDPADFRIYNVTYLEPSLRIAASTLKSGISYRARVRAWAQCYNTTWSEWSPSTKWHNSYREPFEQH
Briefly: competitive ELISA, competitor IL4-N-His, coated IL-4RA-hFc, 4-parameter fit. The protocol: (§1) The Elisa plates were coated with human IL-4RA-hFc and blocked before the target antibodies were added. […] After the plates were washed, mouse anti-His, HRP (purchased from CoWin Biosciences, Cat No. CW0285A) was added for incubation. The plates were subjected to another wash. A chromogenic reaction was performed by adding TMB (Neogen, 308177) and was then terminated. The Elisa plates were put into a microplate reader immediately, and the OD value of each well in the Elisa plates was read at 450 nm. The data were analyzed and processed by SoftMax Pro 6.2.1.
By 4-parameter logistic regression of absorbance vs. antibody concentration, the blocking EC₅₀ of the antibodies was calculated.
In general terms: In an ELISA, binding on a coated surface is turned into a signal by an enzyme label.

The target of test [2] is T1, human IL-4RA-hFc. As to the kind of experiment: competitive ELISA, competitor IL4-N-His (anti-His signal); antibody 3 ug/mL. Here is the method:
as §1

For test [3], the target named is T1, human IL-4RA-hFc. As to the kind of experiment: indirect ELISA, coated IL-4RA-hFc 1 ug/mL, 4-parameter fit. The protocol:
Procedures: The Elisa plates were coated with human IL-4RA-hFc or human IL-4RA-mFc and were incubated, and the target antibodies were added after blocking. […] The plates were incubated and washed before TMB (Neogen, 308177) was added for chromogenic reaction. At the end of the reaction, the absorbance at 450 nm was measured by a microplate reader. The data were analyzed and processed by SoftMax Pro 6.2.1.

B1: anti-human IL-4RA antibody 13E5 (antibody, V domains shown)
VH: EVQLQQSGPELVKPGASVKISCKTSGYTFTEYTIHWVKQNHGKSLEWIGGINPNNGGTVYNQNFKGKATLTVDKSSSTAYMELRSLTSEDSAVYYCARVRRGMDYWGQGTSVTVSS
VL: DIVMTQSHKFMSTSVGDRVSITCKASQDVTTAVAWYQQKPGQSPKLLIYSASYRYTGVPDRFTGSGSGTDFTFTISSVQAEDLAVYYCQQHYSAPWTFGGGTNLEIK
notes: also called murine antibody 13E5; monoclonal antibody of hybridoma cell line LT008 (IL-4RA-13E5), CCTCC NO: C2018131
Take B1: the values for the EC50 with human IL-4RA-hFc [1] and with human IL-4RA-hFc [3] were 3 nM and 0.084 nM, respectively. The “OD 450 nm” value in the test with human IL-4RA-hFc [2] was 0.053 OD.

The term EC50 denotes the concentration that produces a half-maximal response. Lower therefore signals an effect from little substance.
